Data published in PMC9296380, “Characterisation of recombinant GH 3 β-glucosidase from β-glucan producing Levilactobacillus brevis TMW 1.2112” (Antonie Van Leeuwenhoek, 2022).

Substrate: O=[N+]([O-])c1ccc(O[C@@H]2O[C@H](CO)[C@@H](O)[C@H](O)[C@H]2O)cc1
Assay: purified protein
Format: biochemical, Levilactobacillus brevis
Details: 50 mM PBS buffer pH 7, 37 °C, 0.01-20 mM substrate

B1: BglB (Levilactobacillus brevis) (protein)
chain: MDIERTLAELTLPEKAALVSGKNNWYTAAVDRLDLPALMMTDGPSGLRKQTNSGTTNINDAIQAITYPAAALSASTWNESLMHQLGEHLGIEARAEQVSLLLGPGVNMKRSPLGGRNFEYLAEDPLVAGKLGSAYVQGVQSQHVGVAVKHFAANNRENQRFTASSDMSERTLRELYLRTFEIIVKSAYPATIMTSYNKINGVLNSQNERLLRRILRDEWGFHGAVMSDWGAVANTVQALKAGLDLEMPGKGQASVNDIIRAVHTGELDEGTLNKAVRHLLHVVDDWLPADHAQPYDHAAHHQFARKLADDGIILLKNHEDELPLDPQTTGKVVVIGELAENPRFQGSGSSHVNPTKLVSPLDALADSGLKADYYPGYRLDQSETNGDLAEAALTAAKTADHVIIFAGYPETAESEGFDKASLMLPENQSDLIGSLAKANVHTTVVLQNGSAVEMPWIHSVAAVVETYLAGEAVGEATWDIITGAVNPSGHLTETFPRRLTDTPMAPTFGQDPHHEYYTEGIFMGYRYYDTHEMHVLFPFGHGLSYTTFEYTNLKLTQNERGATVTFDVTNTGARSGQAVPQLYIANHASHVPMPTKELRAFTKVAIAPGETETVTLALDRRDFSWWCEPKARWQADSGDYEVMIGESSRDIRLQVKLTMDFKNSPAPITTETYMAAIVKNPQLRDLFKQVVLAPEYAGPENFLATTDDQGSLQIFQDRMFMNMPLRAVVALGGPQALITDFITRANTLLRQ
notes: no signal peptide predicted; C-terminal His tag (stop codon removed, Myc region excised) from pBAD/Myc-His A; expressed in E. coli BL21, Ni-NTA purified; primer-encoded N-terminus MDIERTLAEL
- Km: 220 µM
- kcat: 59.58 s⁻¹
